{"source": "paper PMC7665024", "about": "“Anti-apoptotic BCL-2 regulation by changes in dynamics of its long unstructured loop” (Communications Biology, 2020)", "molecules": {"B1": {"name": "EEE-PB: EEE labeled with Pacific Blue (FRET donor) (conjugate)", "chain": "MAHAGRTGYDNREIVMKYIHYKLSQRGYEWDAGDVGAAPPGAAPAPGIFSSQPGHTPHPAASRDPVAREEPLQTPAAPGAAAGPALEPVPPVVHLTLRQAGDDFSRRYRRDFAEMSSQLHLTPFTARGRFATVVEELFRDGVNWGRIVAFFEFGGVMCVESVNREMSPLVDNIALWMTEYLNRHLHTWIQDNGGWDAFVELYGPSMRPLFDFSWLSL", "modifications": "Pacific Blue (maleimide) on the native cysteine 158; left off: His6, C-terminal, state not stated"}}, "key": {"[1]": {"tested_on": "BCL-2 EEE (T69E/S70E/S87E; EEE-PB)", "test": "FRET association with Pacific Blue-labeled BCL-2 EEE", "conditions": "Fig. 1d"}, "[2]": {"tested_on": "BAX-induced MOMP, isolated mitochondria", "test": "In vitro cytochrome c release assay, isolated mitochondria (BCL-2 mutants)", "type": "biochemical, mouse", "conditions": "Bax+BimBH3 = 100, mean of n = 6", "from_the_text": "To verify this implication, we performed in vitro cytochrome c release assay using isolated mitochondria. […] Lane 3 (Fig. 2a) is a positive control for the cytochrome c release assays. […] (More experimental results in support of the observed BCL-2 activity are given in Supplementary Fig. 3.)\nFig. 2 In vitro assays for evaluating BCL-2 activity. a Cytochrome c release assay with various BCL-2 mutants at varying concentrations. All of the release amounts are normalized to the result caused by the BimBH3-induced BAX activation (lane 3). […] GUVs provide a MOM-like environment devoid of endogenous mitochondrial proteins.\nA Dounce homogenizer was used with 20 strokes to homogenize mouse liver tissue (0.2 mg). The mitochondria fraction was separated using centrifugation according to the Mitochondria Isolation Kit (Thermo Scientific). Mitochondria Assay Buffer A (MAB A) (200 mM mannitol, 68 mM sucrose, 10 mM HEPES, 110 mM KCl, 1 mM EDTA, […], 0.1% BSA, protease inhibitor) was used to wash the mitochondria fraction, followed by centrifugation at 12,000 × g. The pellet was collected and resuspended using enough MAB B (i.e., MBA A without 0.1% BSA) and then quantified by bradford assay (Bio-Rad) to yield a final protein content of the mitochondrial fraction ~3 mg/mL. The final mitochondria fraction was placed on ice for further downstream processing or stored at −80 °C with additional 300 mM trehalose for future use[38]. […] The mixture was then incubated with BAX (0.1 μM) and 10 μL of the mitochondrial fraction ([…]) for 0.5 h at 37 °C. Final volume was adjusted to 30 μL. Following centrifugation at 12,000×g for 10 min, the supernatant was subjected to subsequent immunoblotting (IB). Quantification of IB was done using ImageJ software (version 1.49, NIH). The fraction of cytochrome c released (%) is calculated by (I–I0)/(Imax–I0)×100%, where Imax and I0 are the analyzed intensities of cytochrome c with and without activated BAX, respectively.\nSamples were resolved by SDS–PAGE (15%) and electroblotted onto a 0.45 μm PVDF membrane (GE Healthcare). Primary antibodies used in this study included rabbit anti-BAX N20 (Santa Cruz Biotechnology), mouse anti-BCL-2(C2) (Santa Cruz Biotechnology) and mouse anti-cytochrome c antibodies (clone 7H8.2C12, Millipore). Detection was achieved using sheep anti-mouse IgG HRP (GE Healthcare) and donkey anti-rabbit IgG HRP (GE Healthcare) secondary antibodies. Proteins were visualized by 4CN Plus Chromogenic Substrate (PerkinElmer)."}, "trypsin": {"tested_on": "trypsin", "test": "Limited proteolysis by trypsin", "conditions": "BCL-2 20 μM, trypsin 0.04-9.44 μM, 1 h, room temperature, SDS-PAGE", "protocol": "Fig. 3 Structural differences between WT and EEE. a An illustration of mutation sites prepared for spin-labeling ESR studies. b Distance distributions of various double-spin-labeled BCL-2 (WT or EEE) mutants are determined from the experimental DEER data. […] As highlighted, the displacements of α1 and α2 account for the major differences. d An illustration highlighting the positions of α2–α7 and the binding groove. Structures of WT and EEE are colored as in c. Helices α4–α7 change little between the WT and EEE. The displacement of α2 is critical to the change in the local environment of the binding groove. e Limited proteolysis of BCL-2 (20 μM) analyzed on SDS–PAGE. Trypsin concentrations were 0.04, 0.11, 0.34, 1.03, 3.11, 9.44 μM. Incubation time was 1 h at room temperature. It confirms that tertiary conformations of WT versus EEE are indeed different.\nBCL-2 conformational change was assessed by limited proteolysis using trypsin (MERCK). In brief, 5 µg BCL-2 (WT or EEE) was digested at enzyme/substrate ratios ranging from 1:2 to 1:461 for 1 h at room temperature. Proteolysis was quenched by adding 1 mM PMSF, and then samples were confirmed by SDS–PAGE with Coomassie blue staining."}, "BAX [3]": {"tested_on": "BAX", "test": "FRAP-GUV pore-forming activity of BAX, 70-kDa F-dextran", "type": "biochemical, mouse", "parameters": "FRAP pore-forming activity / FRAP pore-forming activity, average / p (FRAP-70k-p), Average: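 unitless ratio D/D0 relative to diffusion coefficient after Triton X-100 disruption of GUVs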", "protocol": "(§1) Briefly, GUVs were incubated with the proteins of interest over a period of time (Fig. 2c), followed by photobleaching within individual GUVs. A series of fluorescent images were collected over time after the photobleaching and then analyzed to yield the diffusion coefficients of Fluor molecules (including FITC-labeled 70-kDa, and Alexa-647-labeled 10-kDa probes) using the theoretical approach detailed in the “Methods” section. As Fluor molecules are homogeneously dispersed in the solution (outside and inside of GUVs) before the incubation with BAX and activators, it is reasonable to expect that the larger the induced pore area on the surface of a GUV, the greater the diffusion coefficient. Thus, the diffusion coefficient is directly related to the pore-forming activity of activated BAX. As the pore-forming activity is proportional to the concentration of BAX[18], we fixed the total amount of added BAX in all of the measurements below (see the “Methods” section).\n(§2) Full-length BAX and variants were prepared as previously described[18],[22],[35]. Mouse BAX was cloned into pTYB1 vector (New England Biolabs, Inc.), resulting pTYB1-BAX construct. The pTYB1-BAX construct encoding a fusion protein of BAX with chitin-binding peptide was separated by a self-cleavable intein tag to obtain a full-length BAX. Wild-type BAX has two native cysteine residues at 62 and 126. Cysteine-free construct (C62S/C126S) was used to prepare single-cysteine BAX variants for conjugating fluorescence probes (e.g., BAX136C in Fig. 1d). Point mutations of recombinant BAX were generated using a QuikChange mutagenesis kit. Proteins were expressed in E. coli (ER2566) strain (New England Biolabs, Inc.) and purified without detergent. Bacterial cultures were grown at 37 °C in LB medium containing 0.1 g/L ampicillin to reach an OD600 of 1.0. BAX expression was induced by addition of 0.3 mM IPTG at 30 °C for 6−8 h. The cells were harvested by centrifugation and resuspended in ice-cold lysis buffer (20 mM Tris–HCl, pH 7.0, 500 mM NaCl and 1 mM PMSF). The resuspended pellet was sonicated on ice for 30 min, followed by centrifugation at 12,800 × g for 50 min. […] The resins were incubated in a pre-equilibrated buffer (20 mM sodium phosphate, pH 8.0, 100 mM NaCl, 60 mM dithiothreitol (DTT)) for 48 h. Proteins were eluted from column and further purified by a SEC using a HiLoad 16/60 Superdex 75 column (GE Healthcare) pre-equilibrated in PB buffer (20 mM sodium phosphate, pH 7.4, 100 mM NaCl). Purified proteins were confirmed by SDS–PAGE with Coomassie blue staining. Protein concentration was determined using absorption spectroscopy at 280 nm.\n(§3) All lipids used were purchased from Avanti Polar Lipids. […] Texas Red 1,2-dihexadecanoyl-sn-glycero-3-phosphoethanolamine (TR-DPPE) (Invitrogen) of 0.05% was added to the lipid mixture for virtualization of GUV[18],[26],[27]. GUVs were prepared with the gel-assisted swelling on a polyvinyl alcohol (PVA) gel[39]. A 5% (w/w) solution of PVA (MW 145,000) was prepared by stirring PVA in ddH2O while heating at 90 °C. PVA solution was spread on a microscope coverslip (18 × 18 mm, Matsunami, Japan) and then dried at 50 °C. Lipid mixture (1 mg/mL) dissolved in chloroform were spread on the dry PVA film and placed under vacuum for 30 min to evaporate the solvent. Lipids were rehydrated for 1 h in PB buffer. The resulting GUVs were transferred to an Eppendorf tube using blunt tips.\n(§4) FRAP measurements were performed as described previously. […] All reactions were at room temperature and the final volume was 200 μL."}, "BAX [4]": {"tested_on": "BAX", "test": "FRAP-GUV pore-forming activity of BAX, 10-kDa F-dextran", "type": "biochemical, mouse", "parameters": "unit not given here", "conditions": "10 kDa F-dextran", "protocol": "as §1, §2, §3, §4"}}}
{"molecule": "BimBH3-AL488: BimBH3 peptide labeled with Alexa Fluor 488 at C-terminal cysteine (FRET acceptor)", "values": [{"measurement": "molecular association with EEE compared with S70E or WT (in words)", "setting": "[1]", "value": "associated with EEE-PB more potently than with S70E-PB or WT-PB"}]}
{"molecule": "S70E: less potent phosphomimetic mutant S70E of TM-truncated BCL-2", "values": [{"measurement": "Cytochrome c release, Average", "setting": "[2]; BAX+BimBH3 + 2uM BCL-2 protein", "value": 76.6421}, {"measurement": "Cytochrome c release, Average", "setting": "[2]; BAX+BimBH3 + 4uM BCL-2 protein", "value": 24.3731}, {"measurement": "Cytochrome c release, Average", "setting": "[2]; BAX+BimBH3 + 6uM BCL-2 protein", "value": 15.7119}]}
{"molecule": "WT: TM-truncated wild-type human BCL-2 (BCL-2-ΔTM, residues 1–217, C-terminal His6-tag)", "values": [{"measurement": "Cytochrome c release, Average", "setting": "[2]; BAX+BimBH3 + 2uM BCL-2 protein", "value": 77.3682}, {"measurement": "Cytochrome c release, Average", "setting": "[2]; BAX+BimBH3 + 4uM BCL-2 protein", "value": 50.0022}, {"measurement": "Cytochrome c release, Average", "setting": "[2]; BAX+BimBH3 + 6uM BCL-2 protein", "value": 21.4104}, {"measurement": "susceptibility to trypsin proteolysis (in words)", "setting": "trypsin", "value": "susceptible to proteolysis and rapidly degraded to fragments"}]}
{"molecule": "B1", "values": [{"measurement": "pore-forming activity / effect on BAX-induced membrane pores on GUV (in words)", "setting": "BAX [3]; 10- and 70-kDa F-dextran, BAX 1 µM, BimBH3 2 µM, BCL-2 1 µM, ABT-199 30 µM, room temperature, Fig. 2c", "value": "The ability of EEE to sequester BimBH3 is similar to that of EEE-PB"}, {"measurement": "FRAP pore-forming activity, average", "setting": "BAX [3]; 70 kDa F-dextran, mean of trials", "value": 0.000389}, {"measurement": "FRAP pore-forming activity", "setting": "BAX [3]; 70 kDa F-dextran, trial1", "value": 0.00033}, {"measurement": "FRAP pore-forming activity", "setting": "BAX [3]; 70 kDa F-dextran, trial2", "value": 0.000165}, {"measurement": "FRAP pore-forming activity", "setting": "BAX [3]; 70 kDa F-dextran, trial3", "value": 0.000165}, {"measurement": "FRAP pore-forming activity", "setting": "BAX [3]; 70 kDa F-dextran, trial4", "value": 0.00033}, {"measurement": "FRAP pore-forming activity", "setting": "BAX [3]; 70 kDa F-dextran, trial5", "value": 0.00033}, {"measurement": "FRAP pore-forming activity", "setting": "BAX [3]; 70 kDa F-dextran, trial6", "value": 0.000165}, {"measurement": "FRAP pore-forming activity", "setting": "BAX [3]; 70 kDa F-dextran, trial7", "value": 0.00033}, {"measurement": "FRAP pore-forming activity", "setting": "BAX [3]; 70 kDa F-dextran, trial8", "value": 0.0006601}, {"measurement": "FRAP pore-forming activity", "setting": "BAX [3]; 70 kDa F-dextran, trial9", "value": 0.0008251}, {"measurement": "FRAP pore-forming activity", "setting": "BAX [3]; 70 kDa F-dextran, trial10", "value": 0.000495}, {"measurement": "FRAP pore-forming activity", "setting": "BAX [3]; 70 kDa F-dextran, trial11", "value": 0.000495}, {"measurement": "FRAP pore-forming activity", "setting": "BAX [3]; 70 kDa F-dextran, trial12", "value": 0.00033}, {"measurement": "FRAP pore-forming activity", "setting": "BAX [3]; 70 kDa F-dextran, trial13", "value": 0.00033}, {"measurement": "FRAP pore-forming activity", "setting": "BAX [3]; 70 kDa F-dextran, trial14", "value": 0.000495}, {"measurement": "FRAP pore-forming activity, average", "setting": "BAX [4]; mean of trials", "value": 0.001441}, {"measurement": "FRAP pore-forming activity", "setting": "BAX [4]; trial1", "value": 0.0008772}, {"measurement": "FRAP pore-forming activity", "setting": "BAX [4]; trial2", "value": 0.0007018}, {"measurement": "FRAP pore-forming activity", "setting": "BAX [4]; trial3", "value": 0.0003509}, {"measurement": "FRAP pore-forming activity", "setting": "BAX [4]; trial4", "value": 0.0008772}, {"measurement": "FRAP pore-forming activity", "setting": "BAX [4]; trial5", "value": 0.001228}, {"measurement": "FRAP pore-forming activity", "setting": "BAX [4]; trial6", "value": 0.0007018}, {"measurement": "FRAP pore-forming activity", "setting": "BAX [4]; trial7", "value": 0.001228}, {"measurement": "FRAP pore-forming activity", "setting": "BAX [4]; trial8", "value": 0.002456}, {"measurement": "FRAP pore-forming activity", "setting": "BAX [4]; trial9", "value": 0.002807}, {"measurement": "FRAP pore-forming activity", "setting": "BAX [4]; trial10", "value": 0.001579}, {"measurement": "FRAP pore-forming activity", "setting": "BAX [4]; trial11", "value": 0.002105}, {"measurement": "FRAP pore-forming activity", "setting": "BAX [4]; trial12", "value": 0.001404}, {"measurement": "FRAP pore-forming activity", "setting": "BAX [4]; trial13", "value": 0.001579}, {"measurement": "FRAP pore-forming activity", "setting": "BAX [4]; trial14", "value": 0.002281}]}
